# ± gives the uncertainty stated by the source.
# Test: protein stability index of a GFP-peptide fusion (yeast GPS) (PSI 1-4); higher = more stable; sorted into four equal gates, so the index is relative within each strain
# Method in brief: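 Mid-log yeast cultures in leucine-free medium, carrying a pooled plasmid library, were sorted into four equal gates by their GFP/Cherry fluorescence ratio. Each plasmid expressed Cherry along with GFP fused upstream of a tiled 17-residue yeast protein peptide. Plasmids recovered from each gate were PCR-amplified and Illumina-sequenced, with reads assigned to strains by barcodes. The protein stability index was obtained by summing each gate's read frequency weighted by its gate number.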
Sequence,protein stability index (doa10∆),protein stability index (pdr5∆),protein stability index (san1∆),protein stability index (ubr1∆)
KKISRLPKFLTVQYVRF [UBP6],1.65 ± 0.043,1.44 ± 0.041,1.28 ± 0.08,1.36 ± 0.035
KLLDDNPTEFDWPTYVD [SRB8],3.11 ± 0.072,3.29 ± 0.061,3.01 ± 0.042,2.99 ± 0.058
QHQEEPLLSLDVTPISM [RPN4],2.77 ± 0.2,2.97 ± 0.16,3.07 ± 0.086,2.65 ± 0.23
ADDEKSDEEEVTEMSNN [BRR2],3 ± 0.06,3.02 ± 0.042,2.84 ± 0.054,3.1 ± 0.048
DTNAPVAATITSSQKEP [SRB8],2.35 ± 0.14,2.79 ± 0.13,3.04 ± 0.086,2.96 ± 0.11
SELLARDIFQEDEENSD [RGR1],3.48 ± 0.12,3.37 ± 0.12,3.02 ± 0.14,3.27 ± 0.17
TVLCTPTGGKAKLSEGT [RPS27B],3.25 ± 0.11,3.18 ± 0.079,3.15 ± 0.045,3.15 ± 0.1
INLAMNESSLALEFVSL [SRB4],1.44 ± 0.088,1.41 ± 0.074,1.81 ± 0.12,1.92 ± 0.064
IKGSKLSLGEAFKKIDA [COR1],3.29 ± 0.28,–,2.29 ± 0.16,2.64 ± 0.093
YNTRKNAVTAAAANNNI [GAL11],2.19 ± 0.046,2.52 ± 0.044,2.67 ± 0.05,2.46 ± 0.029
YIDYSSKRYIPSVNDFV [RRP40],2.51 ± 0.048,2.83 ± 0.051,2.42 ± 0.1,2.6 ± 0.078
INDAGKAKKLIQSLPPT [RPL38],2.17 ± 0.047,2.38 ± 0.042,1.96 ± 0.059,2.56 ± 0.03
RISGLIYEEVRAVLKSF [HHF1],3.33 ± 0.14,3.13 ± 0.2,3.16 ± 0.11,–
ADAKAFLDSMAQKYASI [FAS2],3.07 ± 0.083,3.19 ± 0.086,3.12 ± 0.047,2.94 ± 0.049
IETEFLLFTVKLKGLMK [IRR1],3.12 ± 0.14,3.06 ± 0.22,2.98 ± 0.12,3.28 ± 0.12
CSPWSLQISDIPAAGNN [SRB5],2.07 ± 0.04,2.21 ± 0.04,1.96 ± 0.055,2.41 ± 0.032
PSGRTRGRSVMKESVVE [ESC2],–,–,2.99 ± 0.19,3.67 ± 0.22
QRKNIQSLELMIYDDAH [BRR2],2.39 ± 0.047,2.61 ± 0.051,2.54 ± 0.066,2.46 ± 0.049
EELLAQYESQAPDGSAS [SWP82],3.02 ± 0.061,2.95 ± 0.084,3.13 ± 0.068,3.08 ± 0.046
ATNRPDTLDPALLRPGR [RPT4],2.91 ± 0.12,3.18 ± 0.14,2.89 ± 0.1,3.1 ± 0.14
PNVDLVTALEVLSLGRP [RGR1],1.95 ± 0.11,2.1 ± 0.063,2.47 ± 0.1,2.21 ± 0.058
RDIFQEDEENSDVLLFQ [RGR1],3.37 ± 0.061,3.46 ± 0.071,3.4 ± 0.039,3.23 ± 0.035
PFDNSTEEKCKNFIESE [YJL039C/NUP192],3.27 ± 0.14,3.39 ± 0.16,3.22 ± 0.096,3.32 ± 0.1
PEMIKRSLLLSRVRADD [RRP43],2.87 ± 0.2,3.63 ± 0.17,–,2.92 ± 0.16
KIRARSITLQGDVYDPE [SMC2],2.07 ± 0.065,2.19 ± 0.059,1.79 ± 0.16,1.86 ± 0.067
SMRVKPSASLKLHHDLK [YMR129W/POM152],3.14 ± 0.079,2.98 ± 0.064,2.95 ± 0.062,3.1 ± 0.048

# Reference: the supplement of paper PMC9732359
